{"source": "patent US20020168748", "key": {"[1]": {"biological_target": "1,3-β-glucan synthase (GS) complex, P38631", "sequence (P38631 whole entry, looked up, one chain of several)": "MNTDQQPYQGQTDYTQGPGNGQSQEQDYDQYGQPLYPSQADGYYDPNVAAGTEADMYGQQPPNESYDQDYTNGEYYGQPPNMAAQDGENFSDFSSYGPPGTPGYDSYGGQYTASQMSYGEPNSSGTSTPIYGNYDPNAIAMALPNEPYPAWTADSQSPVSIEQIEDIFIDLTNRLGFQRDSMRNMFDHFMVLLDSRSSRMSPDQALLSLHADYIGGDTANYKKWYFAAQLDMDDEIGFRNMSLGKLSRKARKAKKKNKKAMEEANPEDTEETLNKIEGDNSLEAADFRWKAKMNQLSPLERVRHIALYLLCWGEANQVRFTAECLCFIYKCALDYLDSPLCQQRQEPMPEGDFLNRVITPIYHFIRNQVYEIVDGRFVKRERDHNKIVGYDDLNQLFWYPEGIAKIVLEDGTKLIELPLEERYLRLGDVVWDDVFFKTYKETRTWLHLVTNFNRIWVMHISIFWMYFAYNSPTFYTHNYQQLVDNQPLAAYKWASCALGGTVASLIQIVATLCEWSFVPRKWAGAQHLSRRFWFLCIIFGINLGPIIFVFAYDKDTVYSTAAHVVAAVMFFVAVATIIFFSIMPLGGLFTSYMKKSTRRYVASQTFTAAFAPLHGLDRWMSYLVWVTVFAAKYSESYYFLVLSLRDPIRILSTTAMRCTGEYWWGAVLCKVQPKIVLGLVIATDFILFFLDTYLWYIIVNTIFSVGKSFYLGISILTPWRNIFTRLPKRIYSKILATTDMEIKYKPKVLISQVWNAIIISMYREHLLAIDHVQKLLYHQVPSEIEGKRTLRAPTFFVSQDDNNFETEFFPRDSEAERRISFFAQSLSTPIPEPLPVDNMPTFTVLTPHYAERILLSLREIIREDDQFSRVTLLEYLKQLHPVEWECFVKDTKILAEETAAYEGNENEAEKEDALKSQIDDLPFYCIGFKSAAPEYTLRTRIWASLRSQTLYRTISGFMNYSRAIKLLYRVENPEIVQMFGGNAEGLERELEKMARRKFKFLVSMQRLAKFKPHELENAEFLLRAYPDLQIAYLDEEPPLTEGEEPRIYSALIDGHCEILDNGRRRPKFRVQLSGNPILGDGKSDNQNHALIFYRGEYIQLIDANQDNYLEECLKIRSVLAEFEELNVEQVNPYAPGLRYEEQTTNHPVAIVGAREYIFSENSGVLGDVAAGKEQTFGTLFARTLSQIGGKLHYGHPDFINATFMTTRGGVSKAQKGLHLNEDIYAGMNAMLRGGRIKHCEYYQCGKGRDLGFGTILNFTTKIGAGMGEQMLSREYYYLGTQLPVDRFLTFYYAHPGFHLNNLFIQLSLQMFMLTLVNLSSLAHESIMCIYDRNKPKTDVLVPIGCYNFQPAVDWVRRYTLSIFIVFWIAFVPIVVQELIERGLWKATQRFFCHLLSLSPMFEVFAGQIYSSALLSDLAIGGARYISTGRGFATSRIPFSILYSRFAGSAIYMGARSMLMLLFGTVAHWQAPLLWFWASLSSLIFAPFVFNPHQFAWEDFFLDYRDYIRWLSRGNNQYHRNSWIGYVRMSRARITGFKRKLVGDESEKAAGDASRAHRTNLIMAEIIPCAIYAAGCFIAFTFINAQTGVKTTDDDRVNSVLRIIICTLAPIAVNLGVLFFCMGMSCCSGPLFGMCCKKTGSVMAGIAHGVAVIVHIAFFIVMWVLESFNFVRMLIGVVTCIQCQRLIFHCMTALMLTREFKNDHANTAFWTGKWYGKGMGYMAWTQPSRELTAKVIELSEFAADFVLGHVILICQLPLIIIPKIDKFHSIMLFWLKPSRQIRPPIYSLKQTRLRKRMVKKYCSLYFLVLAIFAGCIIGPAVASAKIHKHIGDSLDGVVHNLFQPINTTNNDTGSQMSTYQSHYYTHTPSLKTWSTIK"}, "[2]": {"biological_target": "T1, peptide RVKEKKEKKKKCVVL (C-terminus of CaRho1)", "T1 chain": "RVKEKKEKKKKCVVL"}, "peptide GCVLL": {"biological_target": "T2, peptide GCVLL", "T2 chain": "GCVLL"}, "[3]": {"biological_target": "T3, peptide LQARRGKKKSGCLVL (C-terminus of huRhoA)", "T3 chain": "LQARRGKKKSGCLVL"}, "[4]": {"biological_target": "T4, peptide GKKKKKKSKTKCVIM (C-terminus of K-ras4B)", "T4 chain": "GKKKKKKSKTKCVIM"}, "[5]": {"biological_target": "T5, CaRho1 (Candida Rho1-like GTPase)", "T5 chain": "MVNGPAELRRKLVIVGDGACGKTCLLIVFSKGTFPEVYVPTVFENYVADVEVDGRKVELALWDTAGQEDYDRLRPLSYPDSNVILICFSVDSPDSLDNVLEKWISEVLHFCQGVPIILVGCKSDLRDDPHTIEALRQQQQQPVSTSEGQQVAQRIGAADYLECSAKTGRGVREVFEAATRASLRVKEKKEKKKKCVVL"}}, "data": [{"protein": "Recombinant glutathione-S-transferase (GST)-Rho1, preloaded with GTPγS (protein) MSQQVGNSIRRKLVIVGDGACGKTCLLIVFSKGQFPEVYVPTVFENYVADVEVDGRRVELALWDTAGQEDYDRLRPLSYPDSNVVLICFSIDLPDSLENVQEKWIAEVLHFCQGVPIILVGCKVDLRNDPQTIEQLRQEGQQPVTSQEGQSVADQIGATGYYECSAKTGYGVREVFEAATRASLMGKSKTNGKAKKNTTEKKKKKCVLL", "values": [{"measurement": "GS activity in rho1-3 membrane fractions at 37° C.", "setting": "[1]", "result": "GS activity was restored fully by the addition of GTPγS-bound GST-Rho1"}]}, {"protein": "Recombinant glutathione-S-transferase (GST)-Rho1, preloaded with GDP (protein) MSQQVGNSIRRKLVIVGDGACGKTCLLIVFSKGQFPEVYVPTVFENYVADVEVDGRRVELALWDTAGQEDYDRLRPLSYPDSNVVLICFSIDLPDSLENVQEKWIAEVLHFCQGVPIILVGCKVDLRNDPQTIEQLRQEGQQPVTSQEGQSVADQIGATGYYECSAKTGYGVREVFEAATRASLMGKSKTNGKAKKNTTEKKKKKCVLL", "values": [{"measurement": "GS activity in rho1-3 membranes complemented with GST-Rho1", "setting": "[1]", "result": "GTPγS could be replaced with GTP, but not GDP"}]}, {"protein": "S. cerevisiae GGTase (ScGGTase) (protein) chain 1: MEEYDYSDVKPLPIETDLQDELCRIMYTEDYKRLMGLARALISLNELSPRALQLTAEIIDVAPAFYTIWNYRFNIVRHMMSESEDTVLYLNKELDWLDEVTLNNPKNYQIWSYRQSLLKLHPSPSFKRELPILKLMIDDDSKNYHVWSYRKWCCLFFSDFQHELAYASDLIETDIYNNSAWTHRMFYWVNAKDVISKVELADELQFIMDKIQLVPQNISPWTYLRGFQELFHDRLQWDSKVVDFATTFIGDVLSLPIGSPEDLPEIESSYALEFLAYHWGADPCTRDNAVKAYSLLAIKYDPIRKNLWHHKINNLN chain 2: MCQATNGPSRVVTKKHRKFFERHLQLLPSSHQGHDVNRMAIIFYSISGLSIFDVNVSAKYGDHLGWMRKHYIKTVLDDTENTVISGFVGSLVMNIPHATTINLPNTLFALLSMIMLRDYEYFETILDKRSLARFVSKCQRPDRGSFVSCLDYKTNCGSSVDSDDLRFCYIAVAILYICGCRSKEDFDEYIDTEKLLGYIMSQQCYNGAFGAHNEPHSGYTSCALSTLALLSSLEKLSDKFKEDTITWLLHRQVSSHGCMKFESELNASYDQSDDGGFQGRENKFADTCYAFWCLNSLHLLTKDWKMLCQTELVTNYLLDRTQKTLTGGFSKNDEEDADLYHSCLGSAALALIEGKFNGELCIPQEIFNDFSKRCCF", "values": [{"measurement": "Km", "setting": "human RhoA, P61586", "result": "< 100", "unit": "µM"}, {"measurement": "Km", "setting": "H-RasCVLL, P01112", "result": "NS"}, {"measurement": "prenylation of the peptide", "setting": "[2]", "result": "+"}, {"measurement": "prenylation of the peptide", "setting": "peptide GCVLL", "result": "Human GGTase can prenylate peptides that lack the polylysine region, whereas the fungal GGTases can not"}, {"measurement": "prenylation of the peptide", "setting": "[3]", "result": "+"}, {"measurement": "prenylation of the peptide", "setting": "[4]", "result": "+"}, {"measurement": "Km", "setting": "[5]", "result": 80, "unit": "µM"}]}, {"protein": "Candida GGTase (CaGGTase), geranylgeranyl protein transferase I purified from Candida cells (protein) chain 1: MTDSKYDYSDITPVDINTEEPQICQILYDEDYKQIMGLLLALMKAEEYSERALHITELGINELASHYTIWIYRFNILKNLPNRNLYDELDWCEEIALDNEKNYQIWNYRQLIIGRIMELNNNDFDPYREFLILEAMLSSDPKNHHVWSYRKWLVDTFDLHNDAKELSFVDKVIDTDLKNNSAWSHRFFLLFSKKHLATDNTIDEELNYVKDKIVKCPQNPSTWNYLLGIHERFDRSITQLEEFSLQFVDLEKDQVTSSFALETLAKIYTQQKKYNEARTVYDLLKSKYDPIRSNFWDYQISKLTSV chain 2: MNQLLINKHEKFFNRCLIGLPSTAQSEDSNKLAIIYFCLHGLQLIQKFQFTNQELIYYRNFIINQFMIENNQIISFRSTHYFQKTNQKYDCPNLSSTLFALYNLLILKSPYHTIINRKKIMNFLCKCQVKDGINKGGFVPTLYYDEENGDYKQYGEPDLRVCYMALLIRHLMKYDDNNNNNNREDSNETDIDLISLQQFILDRININGGFSSTIMDESHLGFTFCAIASLKLLNYPLEKLKSTKEWLIHRQVDYPENLYPKDGNGDNYEYYRNIDIGGFNGRENKLSDTCYSWWCTGSLYNIDVNFIKLVDLNKAEDYLLNKTQNQLFGGFGRDPDSTPDPMHSYLALASLSLWNHEKFALQEINPILTITKELYQFFKEEIKY", "values": [{"measurement": "Km", "setting": "human RhoA, P61586", "result": "NS"}, {"measurement": "Km", "setting": "H-RasCVLL, P01112", "result": "NS*"}, {"measurement": "prenylation of the peptide", "setting": "[2]", "result": "+"}, {"measurement": "prenylation of the peptide", "setting": "[4]", "result": "+"}, {"measurement": "Km", "setting": "[5]", "result": 250, "unit": "µM"}]}]}
